Reference: paper doi:10.1101/2023.01.23.525122 (bioRxiv, 2023)
Read-outs that look alike come from different tables or passages of the source.

B1: NPM1(7–117) (domain or fragment, UniProt P06748 7-117, looked up)
chain: MDMSPLRPQNYLFGCELKADKDYHFKVDNDENEHQLSLRTVSLGAGAKDELHIVEAEAMNYEGSPIKVTLATLKMSVQPTVSLGGFEITPPVVLRLKCGSGPVHISGQHLV
B2: NPM1(7–117)-K32A (domain or fragment, UniProt P06748 7-117, looked up)
chain: MDMSPLRPQNYLFGCELKADKDYHFAVDNDENEHQLSLRTVSLGAGAKDELHIVEAEAMNYEGSPIKVTLATLKMSVQPTVSLGGFEITPPVVLRLKCGSGPVHISGQHLV
B3: NPM1(7–117)-Y67F (domain or fragment, UniProt P06748 7-117, looked up)
chain: MDMSPLRPQNYLFGCELKADKDYHFKVDNDENEHQLSLRTVSLGAGAKDELHIVEAEAMNFEGSPIKVTLATLKMSVQPTVSLGGFEITPPVVLRLKCGSGPVHISGQHLV
B4: NPM1(7–117)-Y67H (domain or fragment, UniProt P06748 7-117, looked up)
chain: MDMSPLRPQNYLFGCELKADKDYHFKVDNDENEHQLSLRTVSLGAGAKDELHIVEAEAMNHEGSPIKVTLATLKMSVQPTVSLGGFEITPPVVLRLKCGSGPVHISGQHLV
B5: NPM1(1–188) (domain or fragment, UniProt P06748 1-188, looked up)
chain: MEDSMDMDMSPLRPQNYLFGCELKADKDYHFKVDNDENEHQLSLRTVSLGAGAKDELHIVEAEAMNYEGSPIKVTLATLKMSVQPTVSLGGFEITPPVVLRLKCGSGPVHISGQHLVAVEEDAESEDEEEEDVKLLSISGKRSAPGGGSKVPQKKVKLAADEDDDDDDEEDDDEDDDDDDFDDEEAEE
B6: NPM1(1–160) (domain or fragment, UniProt P06748 1-160, looked up)
chain: MEDSMDMDMSPLRPQNYLFGCELKADKDYHFKVDNDENEHQLSLRTVSLGAGAKDELHIVEAEAMNYEGSPIKVTLATLKMSVQPTVSLGGFEITPPVVLRLKCGSGPVHISGQHLVAVEEDAESEDEEEEDVKLLSISGKRSAPGGGSKVPQKKVKLAA
B7: NPM1(1–117) (domain or fragment, UniProt P06748 1-117, looked up)
chain: MEDSMDMDMSPLRPQNYLFGCELKADKDYHFKVDNDENEHQLSLRTVSLGAGAKDELHIVEAEAMNYEGSPIKVTLATLKMSVQPTVSLGGFEITPPVVLRLKCGSGPVHISGQHLV
B8: NPM1(1–130) (domain or fragment, UniProt P06748 1-130, looked up)
chain: MEDSMDMDMSPLRPQNYLFGCELKADKDYHFKVDNDENEHQLSLRTVSLGAGAKDELHIVEAEAMNYEGSPIKVTLATLKMSVQPTVSLGGFEITPPVVLRLKCGSGPVHISGQHLVAVEEDAESEDEEE
B9: NPM1-236A (natural protein, UniProt P06748 1-294, looked up)
chain: MAASMAMDMSPLRPQNYLFGCELKADKDYHFKVDNDENEHQLSLRTVSLGAGAKDELHIVEAEAMNYEGSPIKVTLATLKMSVQPTVSLGGFEITPPVVLRLKCGSGPVHISGQHLVAVEEDAESEDEEEEDVKLLSISGKRSAPGGGSKVPQKKVKLAADEDDDDDDEEDDDEDDDDDDFDDEEAEEKAPVKKSIRDTPAKNAQKSNQNGKDSKPSSTPRSKGQESFKKQEKTPKTPKGPSSVEDIKAKMQASIEKGGSLPKVEAKFINYVKNCFRMTDQEAIQDLWQWRKSL
B10: NPM1-T4sD (natural protein, UniProt P06748 1-294, looked up)
chain: MEDSMDMDMSPLRPQNYLFGCELKADKDYHFKVDNDENEHQLSLRTVSLGAGAKDELHIVEAEAMNYEGSPIKVTLATLKMSVQPTVSLGGFEITPPVVLRLKCGSGPVHISGQHLVAVEEDAESEDEEEEDVKLLSISGKRSAPGGGSKVPQKKVKLAADEDDDDDDEEDDDEDDDDDDFDDEEAEEKAPVKKSIRDDPAKNAQKSNQNGKDSKPSSDPRSKGQESFKKQEKDPKDPKGPSSVEDIKAKMQASIEKGGSLPKVEAKFINYVKNCFRMTDQEAIQDLWQWRKSL
B11: NPM1-234567A (natural protein, UniProt P06748 1-294, looked up)
chain: MAAAAAADMSPLRPQNYLFGCELKADKDYHFKVDNDENEHQLSLRTVSLGAGAKDELHIVEAEAMNYEGSPIKVTLATLKMSVQPTVSLGGFEITPPVVLRLKCGSGPVHISGQHLVAVEEDAESEDEEEEDVKLLSISGKRSAPGGGSKVPQKKVKLAADEDDDDDDEEDDDEDDDDDDFDDEEAEEKAPVKKSIRDTPAKNAQKSNQNGKDSKPSSTPRSKGQESFKKQEKTPKTPKGPSSVEDIKAKMQASIEKGGSLPKVEAKFINYVKNCFRMTDQEAIQDLWQWRKSL
B12: NPM1(1–140) (domain or fragment, UniProt P06748 1-140, looked up)
chain: MEDSMDMDMSPLRPQNYLFGCELKADKDYHFKVDNDENEHQLSLRTVSLGAGAKDELHIVEAEAMNYEGSPIKVTLATLKMSVQPTVSLGGFEITPPVVLRLKCGSGPVHISGQHLVAVEEDAESEDEEEEDVKLLSISG
B13: NPM1(1–150) (domain or fragment, UniProt P06748 1-150, looked up)
chain: MEDSMDMDMSPLRPQNYLFGCELKADKDYHFKVDNDENEHQLSLRTVSLGAGAKDELHIVEAEAMNYEGSPIKVTLATLKMSVQPTVSLGGFEITPPVVLRLKCGSGPVHISGQHLVAVEEDAESEDEEEEDVKLLSISGKRSAPGGGSK

Assays:
Assay in all cases: SDS-resistant oligomer detection by SDS-PAGE
[1] = target: the molecule itself
[2] = target: the molecule itself; remark: listed apart in the source
[3] = target: the molecule itself; remark: listed apart in the source
[4] = target: the molecule itself; remark: listed apart in the source

| Protein | binding result [1] | binding result [2] | other results |
| --- | --- | --- | --- |
| B1 | binds |  |  |
| B2 | binds |  |  |
| B3 | binds |  |  |
| B4 | binds |  |  |
| B5 |  | binds |  |
| B6 |  | binds |  |
| B7 |  | binds |  |
| B8 |  | binds |  |
| B9 |  |  | binding result [3]: binds |
| B10 |  |  | binding result [4]: binds |
| B11 |  |  | binding result [3]: binds |
| B12 |  | binds |  |
| B13 |  | binds |  |
